# According to publication PMC6284806 (Nanotechnology, 2015):
# B1: Horse spleen apoferritin (natural protein, UniProt P02791 1-175, looked up)
# chain: MSSQIRQNYSTEVEAAVNRLVNLYLRASYTYLSLGFYFDRDDVALEGVCHFFRELAEEKREGAERLLKMQNQRGGRALFQDLQKPSQDEWGTTLDAMKAAIVLEKSLNQALLDLHALGSAQADPHLCDFLESHFLDEEVKLIKKMGDHLTNIQRLVGSQAGLGEYLFERLTLKHD
# Target: the molecule itself
# Assay: AUC
protein,measurement,value
B1,stoichiometry N,24
